Experimental data reported in article PMC4063175.

Molecular target: Src13-GCN4-eGFP/mCherry
Experiment: PIE-FCCS

fc (fraction correlated), mean: 0.25 | fc (fraction correlated), median: 0.23
Substance: Src13-GCN4-eGFP/mCherry
